B1: Tk-CSD (cysteine desulfurase of T. kodakarensis, TK1990 protein) (enzyme, Thermococcus kodakarensis, UniProt Q5JIJ0 1-399, looked up)
chain: MKIPDDIRKDIPLTSEVIYFDNTATSLTPKPVIEAMDEYYLKYRANVHRGVHRLSQIATHKYEESRKVVADFINAKFEEIVFTKNTSESLNLVALGLEHIFEKGDKIVTTPYEHHSDLLPWQRLAKKKGLRLEFIEGDLEGNLDLADAEKKIKGAKLVAVQHVSNALGVIHEVEELGKMAKEEGAIFVVDAAQSAGHMEVDVKKLYADFLGFSGHKGPMGPTGIGVLYINSEFFDVFEPPLIGGGTIEDVDLDSYKLAEPPERFEAGTPNIGGAIGLAAGIRYIERIGIEKIEKQEHKLVKRTTEGLDELEVPWYGPRNLKKHAGVVSFNVPPLHPHDVAAILDEHNIMVRSGHHCALPAMKKLGVEGTVRASFHVYNSVEEVETFLSVMENLIRGLRG
notes: cysteine desulfurase (SufS homolog) of Thermococcus kodakarensis, locus TK1990; coding region amplified from genomic DNA of strain KU216; theoretical monomer mass 44.4 kDa; Cloned NheI-EcoRI into pET-21a(+); Homodimer by gel filtration; source: E. coli BL21-CodonPlus(DE3)-RIL (pET1990), purified (heat treatment, anion exchange, gel filtration)
B2: Tk-SmsB (TK0730 protein) with a 6x His tag at its N-terminus (natural protein, Thermococcus kodakarensis, UniProt Q5JG67 1-446, looked up)
chain: MTETITMADAKAIIENQIEELARRNKEPEWMTKIRYKALEAFERAPHKDPVISEEQLLHFIAKPEVKGLPDHIESLDDLPPEMKALLDRLGISEVEQKYIAGLAVQTDTGVIYNQFLQDWAKKGLIVLPTEEAVRKYPDIVKQHFLKLFRADESKLTAYHTAVWNGGIFLYVKEGLKVPFPLHLFFLIQESALAQAPHIIIIAERNTEFHLIEGCTAPILLKHSLHLDMTEAYFHEGAKAQLTVLQNWPEYVHTRPMTRAKVGRGARFINTTVTLGSGKSNIGDPHYWVEEGGHVELNGIILGQKDFYVDLGGRMFLQGPGASGINASKAVIMDESTVVTRGIIEADAPKTKGHISCDALLMSDKAVMETYPGLISRVDDAELSHEAAIGKIREEELFYLMSRGLDEEKATQLIVKGFLDPMLKDIPMEFLVEIRKIIELAVSGGM
notes: SmsB (SufB homolog) of Thermococcus kodakarensis, locus TK0730; coding region amplified from genomic DNA of strain KU216; theoretical monomer mass 50.8 kDa including the His tag; Homodimer by gel filtration.); not shown: His6, N-terminal, kept
B3: Tk-SmsC (TK0731 protein), recombinant (enzyme, Thermococcus kodakarensis, UniProt Q5JG66 1-246, looked up)
chain: MLKVENLHVSVEDKEILRGVDLEVNPGEFHVIMGPNGSGKSTLALTIAGHPKYRVTDGKILFEGEDITELGPDERAKRGILLAFQVPPEVEGVKVIEFLQQVLVELKGMDPAEAYDLVVEKAKELWFKEEDLHRYVNVGFSGGERKRLELLQALLIEPKLLILDEPDSGVDVDSLSIISRKIEELHQRGTAILLITHYGRILGHLDREKLTVHVMKDGRIVKTGSGELVDQIDREGFARIFEEVGA
notes: SmsC (SufC homolog, ABC-type ATPase) of Thermococcus kodakarensis, locus TK0731; coding region amplified from genomic DNA of strain KU216; theoretical mass 27.5 kDa; Cloned NdeI-BamHI into pET-21a(+); Monomer by gel filtration; source: E. coli BL21-CodonPlus(DE3)-RIL (pET0731), purified (heat treatment, anion exchange, gel filtration)

Columns and labels:
[1] = target: the molecule itself; experiment: SEC; gel filtration of Tk-CSD alone and of its mixtures with Tk-SmsB, Tk-SmsC or both, 30 uM of each protein; fractions analysed by SDS-PAGE
[2] = target: the molecule itself; experiment: SEC; Superdex 200 Increase 10/300 GL; 50 mM HEPES pH 7.5, 0.15 M NaCl; Tk-SmsB 40 uM alone, Tk-SmsC 72 uM alone, or mixture of 40 uM each; peak fraction analysed by SDS-PAGE and band densitometry
[3] = target: B2; experiment: cell-based or functional assay
[4] = target: B2; experiment: SEC; Superdex 200 Increase 10/300 GL; 50 mM HEPES pH 7.5, 0.15 M NaCl; Tk-SmsB 40 uM alone, Tk-SmsC 72 uM alone, or mixture of 40 uM each; peak fraction analysed by SDS-PAGE and band densitometry; settings: both partners purified

Binder: B1
- stoichiometry N [1]: 2

Binder: B2
- stoichiometry N [2]: 2

Binder: B3
- kcat/Km of ATP hydrolysis, Tk-SmsB2C2 (Tk-SmsC alone 4.4 × 10^2) [3]: 4600 M⁻¹ s⁻¹
- density ratio of the Tk-SmsB band to the Tk-SmsC band (SDS-PAGE of peak Pm) [4]: 1.13
- stoichiometry N [4]: 1 Tk-SmsC per Tk-SmsB (printed as 2:2)

Reference: PMC12442378, “SmsB-SmsC machinery in Thermococcus kodakarensis functions as an archaeal scaffold mediating Fe-S cluster assembly” (Applied and Environmental Microbiology, 2025)
